B1: 2M8U (parent)
chain: TKAQVIEAFKVFDRDGNGYVTVDYLRKVLNELGDMMPADEIEEMIYEADPQNSGYVQYETFVGMLFL

Variants of B1 are the subject of the data set. Briefly: folding stability dG (cDNA display proteolysis); higher = more stable. The following applies: PBS, room temperature.
Consider TKAQVIEAFKVFDRDGNGYVTVDYLRKVLNELGDMMPADEIEEMIYEADPQNSGPVQYETFVGMLFL [Y55P], for which the “folding stability dG” value came to 1.77 kcal/mol.
With TKAQVIEAFKVFDRDGNGYVTVDYLRKVLNELGDMMPADEIEEMIYEADPQNSGHVQYETFVGMLFL [Y55H], the “folding stability dG” value amounted to 3.22 kcal/mol.
The same measure for TKAQVIEAFKVFDRDGNGYVTVDYLRKVLNELGDMMPADEIEEMIYEADPQNSGSVQYETFVGMLFL [Y55S]: 3.25 kcal/mol.
Turning to TKAQVIEAFKVFDRDGNGYVTVDYLRKVLNELGDMMPADEIEEMIYEADPQNSGNVQYETFVGMLFL [Y55N], the “folding stability dG” value stood at 3.16 kcal/mol.
TKAQVIEAFKVFDRDGNGYVTVDYLRKVLNELGDMMPADEIEEMIYEADPQNSGYVQTETFVGMLFL [Y58T]: the “folding stability dG” value worked out at 2.02 kcal/mol.
The result for TKAQVIEAFVVFDRDGNGYVTVDYLRKVLNELGDMMPADEIEEMIYEADPQNSGYVQYETFVGMLFL [K10V] reads 3.17 kcal/mol; that for TKAQVIEAFFVFDRDGNGYVTVDYLRKVLNELGDMMPADEIEEMIYEADPQNSGYVQYETFVGMLFL [K10F], 3.21 kcal/mol.
Take TKAQVIEAFLVFDRDGNGYVTVDYLRKVLNELGDMMPADEIEEMIYEADPQNSGYVQYETFVGMLFL [K10L]: the “folding stability dG” value came out at 3.25 kcal/mol.
Regarding TKAQVIEAFKVFDRDGNGYVTVDYLRKVLNELGDMMPADEIEEMIYEADPSNSGYVQYETFVGMLFL [Q51S], the “folding stability dG” value came out at 3.49 kcal/mol.
Regarding TKAQVIEAFKVFDRDGNGYVTVDYLTKVLNELGDMMPADEIEEMIYEADPQNSGYVQYETFVGMLFL [R26T], the “folding stability dG” value came to 2.57 kcal/mol.
For the variant TKAQVIEAFKVFDRDGNGYVTVDYLLKVLNELGDMMPADEIEEMIYEADPQNSGYVQYETFVGMLFL [R26L], the “folding stability dG” value worked out at 3.38 kcal/mol.
Regarding TKAQVIEAFKVFDRDGNGYVTVDYLRKVLNELGDMMPADEIEEMIYEADPQNSGYVQYITFVGMLFL [E59I], the “folding stability dG” value amounted to 3.41 kcal/mol.
TKAQVIEAFKVFDYDGNGYVTVDYLRKVLNELGDMMPADEIEEMIYEADPQNSGYVQYETFVGMLFL [R14Y]: the “folding stability dG” value was determined as 3.69 kcal/mol.
TKAQVIEAFKVFDRRGNGYVTVDYLRKVLNELGDMMPADEIEEMIYEADPQNSGYVQYETFVGMLFL [D15R]: the “folding stability dG” value is 1.81 kcal/mol.
Turning to TKAQVIEAFKVFLRDGNGYVTVDYLRKVLNELGDMMPADEIEEMIYEADPQNSGYVQYETFVGMLFL [D13L], the “folding stability dG” value was 2.6 kcal/mol.
For TKAQVIEAFKVFDRDGNGYVTVDYLRKVLNELIDMMPADEIEEMIYEADPQNSGYVQYETFVGMLFL [G33I], the “folding stability dG” value was 4.07 kcal/mol.
The same measure for TKAQVIEAFKVFDRDGNGYVTVDYLRKVLNELGDMMPADEIEEEIYEADPQNSGYVQYETFVGMLFL [M44E]: 2.18 kcal/mol; for TKAQVIEAFKVFDRDGNGYVTVDYLRKVLNELGDMMPADEIEEMIYEAYPQNSGYVQYETFVGMLFL [D49Y]: 2.67 kcal/mol; for TKAQVIEAFKVFDRDGNGYVTVDYLRKVLNELGDMMPADEIEEMIYEAEPQNSGYVQYETFVGMLFL [D49E]: 2.25 kcal/mol.
As for TKAQVIEAFKVFDRDGNGYVTVDYLRKVLNELGDMMPADEIEEMIYEADPQNSGYVQYETFVMMLFL [G63M], the “folding stability dG” value worked out at 3.79 kcal/mol.
The same measure for TKAQVIEAFKVFDRDGNGYVTVDYLRKVLNELGDMMPADEIEEMIYEADPQNIGYVQYETFVGMLFL [S53I]: 3.21 kcal/mol.
Regarding TKAQVIEAFKVFDRDGNGYVTVDYLRKVLNELGDMMPADEIEEMIYEADPQNDGYVQYETFVGMLFL [S53D], the “folding stability dG” value stood at 3.02 kcal/mol.
The same measure for TKAQVIEAFKVFDRDGNGYVTVDYLRKVLNELGDMMPADEIEEMIYEADPQNSMYVQYETFVGMLFL [G54M]: 2.59 kcal/mol.
As to TKAQVIEAFKVFDRDGNGYVTVDYLRKVLNELGDMMPADEIEEMIYEADPQNSGYVQYETDVGMLFL [F61D], the “folding stability dG” value is 0.727 kcal/mol.
The same measure for TKAQVIEAFKVFDRDGNGYVTVDYLRKVLNELGDMMPADEIEEMIYEADPQNSGYVQYETNVGMLFL [F61N]: 1.32 kcal/mol; for TKAQVIEAFKHFDRDGNGYVTVDYLRKVLNELGDMMPADEIEEMIYEADPQNSGYVQYETFVGMLFL [V11H]: 3.32 kcal/mol.
Consider TKEQVIEAFKVFDRDGNGYVTVDYLRKVLNELGDMMPADEIEEMIYEADPQNSGYVQYETFVGMLFL [A3E], for which the “folding stability dG” value came out at 3.69 kcal/mol.
For the variant TKAQVIEAFKVFDRDGNGYVTVDYLRKVLNELGDMMPADEIYEMIYEADPQNSGYVQYETFVGMLFL [E42Y], the “folding stability dG” value came out at 2.97 kcal/mol.
With TKAKVIEAFKVFDRDGNGYVTVDYLRKVLNELGDMMPADEIEEMIYEADPQNSGYVQYETFVGMLFL [Q4K], the “folding stability dG” value was determined as 3.38 kcal/mol.
Turning to TKAQVIEAFKVFDRDGNGYVTVDYLRKVLNELGDMMNADEIEEMIYEADPQNSGYVQYETFVGMLFL [P37N], the “folding stability dG” value was 3.6 kcal/mol.
With TKAQVIEAFKVIDRDGNGYVTVDYLRKVLNELGDMMPADEIEEMIYEADPQNSGYVQYETFVGMLFL [F12I], the “folding stability dG” value stood at 3.04 kcal/mol.
The same measure for TKAQVIEAFKVFDRDGNGYVTPDYLRKVLNELGDMMPADEIEEMIYEADPQNSGYVQYETFVGMLFL [V22P]: 2.22 kcal/mol; for TKAQVIEAFKVFDRDGNGYVTVDYLRKVLNELGDMMPADEIEEMIYEADPQNSGYVQYETFVGWLFL [M64W]: 3.59 kcal/mol.
For the variant TKAQVIEAFKVFDRDGNGYVTVDYFRKVLNELGDMMPADEIEEMIYEADPQNSGYVQYETFVGMLFL [L25F], the “folding stability dG” value amounted to 2.91 kcal/mol.
Consider TKAQVIEAFKVFDRDGNGYVTVDYLRKVWNELGDMMPADEIEEMIYEADPQNSGYVQYETFVGMLFL [L29W], for which the “folding stability dG” value was found to be 2.91 kcal/mol.
Turning to TKAQVIEAFKVFDRDGNGYVTVDYLRKVINELGDMMPADEIEEMIYEADPQNSGYVQYETFVGMLFL [L29I], the “folding stability dG” value stood at 3.53 kcal/mol.
Turning to TKAQVIEAFKVFDRDGNGYVTVDYLRKVLNELGDMMPADEIEEMIYEADPQNSGYVSYETFVGMLFL [Q57S], the “folding stability dG” value was found to be 2.71 kcal/mol.
Take TKAQVIEAFKVFDRDGNGYVTVDYLRKVLNELGDMMPADEIEEMIYEADPQNSGYVNYETFVGMLFL [Q57N]: the “folding stability dG” value came to 3.61 kcal/mol.
Take TKAQVIEAFKVFDRDGNGYVTVDYLRKVLNDLGDMMPADEIEEMIYEADPQNSGYVQYETFVGMLFL [E31D]: the “folding stability dG” value was found to be 3.62 kcal/mol.
The result for TKAQVIEAFKVFDRDGNGYVTVDYLRKVLNVLGDMMPADEIEEMIYEADPQNSGYVQYETFVGMLFL [E31V] reads 3.49 kcal/mol.

The record behind these values is the MegaScale stability set (Tsuboyama et al. 2023).
